Source: article PMC2782912
pKd: −log10 of the molar value.

How the values were obtained:
[1] = target: HIV-1 capsid protein CA (Human immunodeficiency virus 1) (UniProt O93182); details: cited from earlier work
[2] = target: HIV-1 capsid protein C-terminal domain, CA-CTD (Met144-Leu231) (HIV-1); assay: NMR titration

Chain of HIV-1 capsid protein CA (O93182 133-363): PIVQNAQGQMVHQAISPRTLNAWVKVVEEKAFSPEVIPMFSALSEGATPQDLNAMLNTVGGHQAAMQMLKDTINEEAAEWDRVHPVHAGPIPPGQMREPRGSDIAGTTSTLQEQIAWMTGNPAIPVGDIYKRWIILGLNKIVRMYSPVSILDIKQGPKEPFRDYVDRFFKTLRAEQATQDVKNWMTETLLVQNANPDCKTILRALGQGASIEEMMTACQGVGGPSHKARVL

Substance	pKd [1]	pKd [2]
HIV-1 capsid protein CA (from UniProt O93182)	4.74	
HIV-1 capsid protein C-terminal domain, CA-CTD (Met144-Leu231) (domain or fragment)		5.01
